Measurements taken from patent US12012446B2, “Epstein-Barr virus antibodies and uses thereof” (priority 2017, dated 2024).

Target: T1, EBV gH/gL (Epstein-Barr virus, UniProt P03212+P03231)
T1 construct: expressed in transfected cells; host or cells: CHO cells
Assay: Flow cytometry of gH/gL-expressing CHO cells
Type: binding
Excerpt: FIGS. 10A-10B show the comparison of murine E1D1 (mE1D1) and humanized E1D1 (hE1D1). FIG. 10A: Sequence comparison of mE1D1 and hE1D1. Alignment of heavy chain (i) and light chain (ii) variable region amino acid sequences by the Clustal W. Murine E1D1 heavy chain and light chain AA sequences are represented by SEQ ID NOs: 183 and 184, respectively, and humanized E1D1 heavy chain and light chain AA sequences are represented by SEQ ID NOs: 185 and 186, respectively. Regions of identical sequence are represented by *. Regions of similarity are represented by :. FIG. 10B: Flow cytometric analysis of mE1D1 and hE1D1 gH/gL specificity. CHO wild type cells and gH/gL-expressing CHO cells were stained with mE1 D1 and hE1 D1, followed by secondary goat anti-mouse or anti-human conjugated to AF488. Unstained cells and cells stained with secondary goat anti-mouse or anti-human conjugated to AF488 alone, were used as negative controls.
Similar to Example 4, humanized E1D1 antibody was produced and its specificity was compared to mouse E1D1 by flow cytometric analysis (FIG. 10).
Flow cytometric analysis of gp350 and gH/gL specificity was performed. CHO wild type cells and gp350 or gH/gL-expressing CHO cells were stained with primary antibodies, followed by secondary goat anti-mouse or anti-human conjugated to AF488. […]

B1: humanized E1D1: humanized anti-EBV gH/gL antibody E1D1; SEQ ID NOs: 185 and 186 (antibody, V domains shown)
VH: EVQLVESGGGLVQPGGSLRLSCAASGYTFTDYVISWVRQSPGKGLEWIGEIYPESGNTYYADSVKGRATLSADKSKNTAYLQMNSLRAEDTAIYFCAEGYAMDFWGQGTLVTVSS
VL: DIQMTQSPILLSASVGDRVTITCRSSQSLLHSNGNTYLHWYQQRTNGSPRLLIYKVSNRFSGVPSRFSGSGSGTDFTLTISSLQPEDEADYFCSQSIHVPRTFGAGTKVEIKR
With B1 the “binding specificity to EBV gH/gL by flow cytometry” value was “did not affect its binding specificity to EBV gH/gL”.
